The values below come from patent US20070014810A1 (published 2007).

The test deals with T1, HLA-A*2601 (human).
T1 construct: purified HLA molecule
As to the kind of experiment: inhibition of 125I-labelled probe peptide binding to purified HLA, gel filtration; standard peptide.

One may read the IC50 as the concentration needed to halve the response being measured.

ETFGFEIQSY [standard peptide ETFGFEIQSY]: the IC50 was found to be 1 nM.
